Data reported in the DeepSol protein solubility set.

Assay: soluble on expression in E. coli; label from the status in PepcDB or PDB records

Q: With “MGHHHHHHSHMLPPPQPGAAGGSGQPRKCSSRRNAWGNLSYADLITRAIESSPDKRLTLSQIYEWMVRCVPYFKDKGDSNSSAGWKNSIRHNLSLHSRFMRVQNEGTGKSSWWIINPDGGKSGKAPRRRAVSMDNSNKYTKSRGRAAKKKA” as the sequence, how does the “soluble on expression in E. coli” value read?
A: soluble

Q: Which “soluble on expression in E. coli” value does the source give for “SFLSNVKYNFMRIIKYEFILNDALNQSIIRANAQYLTAAALHNLDEAVKFDMGAYKSSKDDAKITVILRISKTQLYVTAQDEDQPVLLKEMPEIPKTITGSETNLLFFWETHGTKNYFTSVAHPNLFIATKQDYWVCLAGGPPSITDFQILENQA” here?
A: soluble

Q: For “MSRTLTPLLDRVCEPQDLRAFPESDLARLADELRAETIDVVSVTGGHLGAGLGVIELTVALHYVFNTPEDRIIWDVGHQAYPHKILTGRREKIRTLRQEGGLSGFTKRSESVYDPFGAGHSSTSISAGLGMAVASALKAEKRRNIVAVIGDGAMSAGMAYEAMNNAGALNARLIVVLNDNDMSIAPPTGAMSAHLARLVSRPAYRSLRERVKVLGEKLPKFFLDKARRSEEFARGFLVGGTLFEELGFYYVGPIDGHNLKHLLPVLKNVREYPTGPVLIHVVTHKGKGYAPAEASLDKYHGVNRFDIITGKQVKASSNVLPYTKVFSKALREEASYDDKIVAITAAMPTGTGLDFFAEKFPERMFDVGIAEQHAVTFAAGMACEGYKPFVAIYSTFLQRAYDQIIHDVSIQKLPVRFAIDRAGFVGADGATHAGSFDIVFLTTLPEFVVMAPSDEVELMHMVRTAAAYDQGPISFRYPRGEGIGMDLPQRGEILEIGKGRILHEGNRIALVCFGTRISEVLVAADELSAEGLSTTVADARFAKPLDKDLMRRLAREHEVLVTIEEGAIGGFGAHLLQFLAQEGLLEHGLKVRTLKLPDEYLNHGSQEKVLSRIGLDAVGIVNTVFSALGRKIRTVQRVRV”, which “soluble on expression in E. coli” value is on record?
A: not soluble

Q: Which “soluble on expression in E. coli” value does the source give for “MAAASISAIGCNQTLIGTSFYGGWGSSISGEDYQTMLSKTVAPPQQARVSRKAIRAVPMMKNVNEGKGLFAPLVVVTRNLVGKKRFNQLRGKAIALHSQVITEFCKSIGADAKQRQGLIRLAKKNGERLGFLA” here?
A: not soluble

Q: With “MSSQKSGIVVQSDETHILISSSHDIFVADPDQNTKLGDSVSFTTWDIANNLKRASDIKPRNQIVESVVYEQDQSLRLRLKILGFYDFTKSQQRVFRTDFITQVREGEKFKYLPKNAFFGRQITVKLTHQKNSIVWELDEFEEPKEKTYSLIGQIYYTDFSDAYVYVPGYPEPFVISKETNFSRSEEGTWVKFLACTATASVKKSEGFQFLEKDLLDTNRNREIAIKCSRKDGIIQSHHFEKVIDKDNRLADYGVLSDFENVLIYVKVSMEGVSKKPSLILGQFQTSFNVNPTLTRDQKEALDPPKRILKKQSSLPREGSSRKQVTQIQNLSRKIETGPRINFLPNFNNQDHGSEFFSDNEEMDLVPPLENSHLRVDPVPVPIEPSIQQNRTTTTAPISAPARRISSNESRRENPNSQPAPSKMQNVFREDPEAEYKRPERSNADNDETSSTISACSSKSRIVRENPDANYERPARRLPTPPLEANDNLEHQSHDSSSTDGLRDTSPVGNNTNPRSGSPSCHSDTHSSVSSSLWITTINSSKDLEFVKNEYIKLWIEDQASQKEMKNLKAKRIELKMKQKKLKAELNDEKMKNQKLEEAAFNDRKEKAELKKKVSNLEQSAQNTQRTLQNQTRELNLYSTNRSWLRKEFNSTNLLEHLRRNYHDLSKRLEQFAFN” as the sequence, how does the “soluble on expression in E. coli” value read?
A: not soluble

Q: With “METMCEVKVITGTSAAAEAAKLADVDVIAAYPITPQTTCVEKLAEFVANGELDAEYIKVESEHSAMSACIGAAATGARTFTATASQGLALMHEMLFIASGMRLPIVMMVANRALSAPINIWNDHQDSIAERDSGWIQIYVEDNQETLDSIIQAYKIAENEDVLLPVMVCLDGFILTHTVEPVTIPKAERVREFLGVYEPKHAYLDPDRPITQGPVGVPDCYMETRKQIEEAMERAKKVIRDVNEEFAEWFKRKY” as the sequence, how does the “soluble on expression in E. coli” value read?
A: not soluble

Q: Which “soluble on expression in E. coli” value does the source give for “MLYNKSSFCLWKETIVPIILDSDVLEVAEYVYKTRLSQPYTEVGSEWEYNYKNPTATFAKGDGHNLQRYITIDGKQLHRPIHGLAHTMRTLMYSQLMYCSSKKQPSPHVCQDGRTIADLSELDLKKINIAQLFFVAGRESEASYGDAYHRYHLYGAKQFEEYARKHLTHLFSEEEIRLYSRCIEDRVGDSFDGTPEGYIIHLSHMIDLMRCKSPVEVFLGHSKGVSGIVPTLIHLFGKQDGLDIMHYARGLFAATGEAVPYIDSSEWPHLGVDLSRVQRALSIVGDINVPGQEADSKKTAQAGFSVDGCYSALTSVPTPSWYEKELKEIDDEKIDVKEVDDREIEKEHEIVVPSQATTPLSTVKTDSFVEKLLKPFMIWKKPEVQTTQPTTEKTNKP” here?
A: not soluble

Q: For “MDHDTEVIVKDFNSILEELTFNSRPIITTLTKLAEENISCAQYFVDAIESRIEKCMPKQKLYAFYALDSICKNVGSPYTIYFSRNLFNLYKRTYLLVDNTTRTKLINMFKLWLNPNDTGLPLFEGSALEKIEQFLIKASAAALE”, which “soluble on expression in E. coli” value is on record?
A: soluble

Q: Which “soluble on expression in E. coli” value does the source give for “MRGSHHHHHHTDPALRASKVTPQPKIGFVSLGCPKNLVDSERILTELRTEGYDVVPSYDDADMVIVNTCGFIDSAVQESLEAIGEALNENGKVIVTGCLGAKEDQIREVHPKVLEITGPHSYEQVLEHVHHYVPKPKHNPFLSLVPEQGVKLTPRHYAYLKISEGCNHRCTFCIIPSMRGDLVSRPIGEVLSEAKRLVDAGVKEILVISQDTSAYGVDVKHRTGFHNGEPVKTSMVSLCEQLSKLGIWTRLHYVYPYPHVDDVIPLMAEGKILPYLDIPLQHASPRILKLMKRPGSVDRQLARIKQWREICPELTLRSTFIVGFPGETEEDFQMLLDFLKEARLDRVGCFKYSPVEGADANALPDQVPEEVKEERWNRFMQLQQQISAERLQEKVGREILVIIDEVDEEGAIGRSMADAPEIDGAVYLNGETNVKPGDILRVKVEHADEYDLWGSRVGLCGR” here?
A: soluble

Q: With “MGSDKIHHHHHHMVSLMEHGMLPDAVIRSGIRRLLMKRLQEESCGDTEADRARQREFFEQLSHSPLAMETGAANKQHYELPPDFFSLVLGPRRKYSCCLYPPGVDDLATAEEAMLRLTCQRAGLADGMDILELGCGWGSLTLWMAEHYPDARITAVSNSAPQRQFIQGACRGRGFGNVRVITADMNDFTIEKTFDRVVSVEMFEHMRNYAELLRRIAGWLKDDGRLFVHIFCHRTLAYLFQTDGEDDWMGRYFFTGGIMPSDHLLFYFNDHLAVEDHWRVGGRHYQRTCDGWLERMDTERRKILEIFWDVYEGDAPVWFQRWRVFFMACSELFGYSEGNEWFVSHYLLRKNSAGVLCGNRQKALSFSGVCK” as the sequence, how does the “soluble on expression in E. coli” value read?
A: not soluble

Q: Which “soluble on expression in E. coli” value does the source give for “MNEADYLRLLTRQAEQANDFLSNARKWDRERWVCQRFLEALNVPYRQEDFAAPGEQPPDVLFKGAGFEVFFVLDEGRRLNEEWREELTRRRQAVSLRQLIRREERPQRIAAAELQARLAPTLRKKAHNYSERGIDHGELDLLAFVNLKRAVPDFNTPFPPPTEYLRQGWRSLSMVGPTFARVLFAHSGAPEFLRANLGRSILFDAGVGL” here?
A: soluble

Q: Which “soluble on expression in E. coli” value does the source give for “EVKLQESGGDLVQPGGSLKLSCAASGFTFSSYTMSWVRQTPEKRLEWVASINNGGGRTYYPDTVKGRFTISRDNAKNTLYLQMSSLKSEDTAMYYCVRHEYYYAMDYWGQGTTVTVSSAWRHPQFGG” here?
A: soluble

Q: Which “soluble on expression in E. coli” value does the source give for “MAHHHHHHMKCVVCDADKAGYRCRACRSAYCSSQCYRKHRMSREEAAAQVANINAATSSFAHLCETVVAAQRPQKELDEKRQRTEAEADVFSDVSREKVAAAGAVHGSENDAPPPSTAPAVETAWKTATGASEASGPACAEPQPSARTEYAGDSDAVYILQEKHLGALAHDPRVRSALRSPSLQKLIKTIDSSRSRLDALEAAQYNNADFKGFCDAVLRVIAEVEGR” here?
A: soluble

Q: With “MTKIWTRDGFAENDPWVIETEEVKATGEQKPVLPLADFLVRAAESNDIGLGVLISPADDVNRLEPYLDRIDLVAVSFPAFNDGRGFSHASLLRSRLGFAGEVRAVGDVLIDQVPLMLRTGFTSFAVTNETAIRRLSENRLPEITVYYQPTALPATGGEAYSWRRRAAQ” as the sequence, how does the “soluble on expression in E. coli” value read?
A: not soluble

Q: Which “soluble on expression in E. coli” value does the source give for “MSVEIESIEHELEESIASLRQAGVRITPQRQAILRYLISSHTHPTADEIYQALSPDFPNISVATIYNNLRVFKDIGIVKELTYGDSSSRFDFNTHNHYHIICEQCGKIVDFQYPQLNEIERLAQHMTDFDVTHHRMEIYGVCKECQDK” here?
A: not soluble

Q: For “MGSDKIHHHHHHMEKEFRILNIVSAKIWGGGEQYVYDVSKALGLRGCTMFTAVNKNDELMRRRFSEVSSVFTTRLHTFNGLFSLYALTRFIRENHISHLMIHTGKIAALSVLLKKLTGVRLIFVKHNVVANKTDFYHRLIQKNTDRFICVSRLVYDVQTADNPFKEKYRIVHNGIDTGRFPPSQEKPDSRFFTVAYAGRISPEKGLENLIEACVILHRKYPQIRLKLAGHGHPDYMCRLKRGVSASGAEPFVSFEGFTEKLASFYRQSDVVVLPSLVPEAFGLSLCEAMYCRTAVISNTLGAQKEIIEHHQSGILLDRLTPESLADEIERLVLNPEAKNALATAGHQCVAARFTINHTADKLLDAI”, which “soluble on expression in E. coli” value is on record?
A: not soluble

Q: Which “soluble on expression in E. coli” value does the source give for “MSFRLRIDDSVTADHVVCWGVTVALLKKSLFGSTPEERKRRVEEKISQAVVELGLEGLSDEFRVSMLSAWVRYYVFRVDAGEKTFVLNVLSPNSPVKSFRDILDPLRGLFEKFRENIAVPVAYTDEFMLQEWINGLPLSELRDGDVMRSDEKSRRIIEESIYLTARLLYRLWKEGFVYSPWEDYEAMYCDGKIVLLDVTRFEKKPSNESFLQHYYGAPFCPPDVLKDPKSPVNRLYFRGTSERDYFGVEREKYEELFLKGIRDECGSEQEFKILLGDCEAVERIKRV” here?
A: not soluble

Q: Which “soluble on expression in E. coli” value does the source give for “MGSDKIHHHHHHMTDLAPILAEADKALPQSLDRLFDLVRIASISTDPAYKADCRKAAEWLAQELKGLGFNASVRDTPGHPMVVGHHDADRPDAPHVLFYGHYDVQPVDPLDLWENDPFEPAIKEIEPGRKVITGRGTSDDKGQLMTFVEACRAYKAVHGGLPIKITILFEGEEESGSPSLKPFLAANEDELKCDFALVCDTGMWDRETPAIAAALRGLVGEEVTVTAADRDLHSGLFGGAAANPIHILAKVLADLHDETGRVTIDGFYEGVEETPVNIKASWEKLGRTADKFLNDVGLSIPSGETGRSVLELTWARPTAEVNGITGGYTGEGFKTVIASKASAKVSFRLVGEQDPAKIRENFRAFVKARIPGDCSVEFHEHGASPAIQLPYDSPFLTKAKSALSDEWPKPAEVIGMGGSIPIVGDFQTMLGMDSLLVGFGLVDDRIHSPNEKYELESFHKGIRSWIRILDALAH” here?
A: not soluble

Q: Which “soluble on expression in E. coli” value does the source give for “MHGITIDSGRALDMLASMIEEAEQQYQAHMRETPHYEPASAGEGFVAYGESINSLFQLLHQRNAQRLELIKLGLEDARQRVHDLSNTDTEFAARLGAVE” here?
A: not soluble

Q: Which “soluble on expression in E. coli” value does the source give for “SLKITDDCINCDVCEPECPNGAISQGEEIYVIDPNLCTECVGHYDEPQCQQVCPVDCIPLDDANVESKDQLMEKYRKITGKA” here?
A: soluble

Q: With “MSVTAPSARPAPDHHAQFLQLLDTSLTQNAFIKLVLAKHVGPEADLQRLIIKQLTVKEQPCLSFVYRYKTRDITKNFSLDEGIAAIAELLPAAFKNAHLLTLTDEVQLEYSKKGKSSLFKGKPQTQRDAPSAEHNREKNRFLDLSRPFLADLGVTNKQHELIPAMSRKWKQINKFIEVFSHALGSSPIKLDQPVRVADFGSGKGYLTFAIHDYLRNTLKAEGEVTGVELREDMVTLCNAAAQRLEHPGLVFKCGDVRSVAPSQLEVMIALHACDIATDYAIHTGIRSGAAIIMCSPCCHKQIRQQIQSPQLLKPMLQYGLHLGQQAEMVTDSLRALFLEACGYETKVFEFISLEHTNKNKMILAVKRAEPQDPSQLLARIEELKAFYQISEHCLETLLKADGYLG” as the sequence, how does the “soluble on expression in E. coli” value read?
A: soluble
